Measured values as given in paper PMC9173649 (2022).

Key:
[1] = target: T1, C1q purified from human serum (human, UniProt P02745 23-245; P02746 28-253; P02747 29-245); assay: BLI; 2:1 heterogeneous ligand model, kd2 (second site)
[2] = target: T1, C1q purified from human serum; assay: BLI; 2:1 heterogeneous ligand model, KD2 (second site)
[3] = target: T1, C1q purified from human serum; assay: BLI; 2:1 heterogeneous ligand model, kd1 (first site)
[4] = target: T1, C1q purified from human serum; assay: BLI; 2:1 heterogeneous ligand model, KD1 (first site)

T1 sequence (P02745 23-245, chain 1 of 3): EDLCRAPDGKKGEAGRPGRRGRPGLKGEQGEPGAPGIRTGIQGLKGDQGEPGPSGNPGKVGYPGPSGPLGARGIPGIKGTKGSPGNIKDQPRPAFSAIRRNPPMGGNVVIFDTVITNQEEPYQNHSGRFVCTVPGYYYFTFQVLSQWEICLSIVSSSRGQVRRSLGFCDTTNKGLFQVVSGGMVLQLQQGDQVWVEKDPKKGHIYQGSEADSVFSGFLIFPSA
T1 sequence (P02746 28-253, chain 2 of 3): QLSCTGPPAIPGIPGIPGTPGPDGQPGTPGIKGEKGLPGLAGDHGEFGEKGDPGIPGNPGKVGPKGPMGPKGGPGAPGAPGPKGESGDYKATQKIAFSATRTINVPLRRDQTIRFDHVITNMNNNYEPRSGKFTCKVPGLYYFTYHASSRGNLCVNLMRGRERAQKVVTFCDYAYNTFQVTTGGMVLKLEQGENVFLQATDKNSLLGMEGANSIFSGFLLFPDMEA
T1 sequence (P02747 29-245, chain 3 of 3): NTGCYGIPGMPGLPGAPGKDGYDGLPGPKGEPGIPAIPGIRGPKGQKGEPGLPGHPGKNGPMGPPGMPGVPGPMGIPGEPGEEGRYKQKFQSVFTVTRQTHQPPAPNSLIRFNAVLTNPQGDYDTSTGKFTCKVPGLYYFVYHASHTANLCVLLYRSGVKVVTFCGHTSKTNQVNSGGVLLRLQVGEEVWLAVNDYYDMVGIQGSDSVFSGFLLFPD

- koff [1]: 0.00928 s⁻¹
- Kd [2]: 4.33 nM
- koff [3]: 0.000402 s⁻¹
- Kd [4]: 10 nM
B1: C1r2C1s2 catalytic tetramer (complex)
chain 1: SIPIPQKLFGEVTSPLFPKPYPNNFETTTVITVPTGYRVKLVFQQFDLEPSEGCFYDYVKISADKKSLGRFCGQLGSPLGNPPGKKEFMSQGNKMLLTFHTDFSNEENGTIMFYKGFLAYYQAVDLDECASRSKSGEEDPQPQCQHLCHNYVGGYFCSCRPGYELQEDTHSCQAECSSELYTEASGYISSLEYPRSYPPDLRCNYSIRVERGLTLHLKFLEPFDIDDHQQVHCPYDQLQIYANGKNIGEFCGKQRPPDLDTSSNAVDLLFFTDESGDSRGWKLRYTTEIIKCPQPKTLDEFTIIQNLQPQYQFRDYFIATCKQGYQLIEGNQVLHSFTAVCQDDGTWHRAMPRCKIKDCGQPRNLPNGDFRYTTTMGVNTYKARIQYYCHEPYYKMQTRAGSRESEQGVYTCTAQGIWKNEQKGEKIPRCLPVCGKPVNPVEQRQRIIGGQKAKMGNFPWQVFTNIHGRGGGALLGDRWILTAAHTLYPKEHEAQSNASLDVFLGHTNVEELMKLGNHPIRRVSVHPDYRQDESYNFEGDIALLELENSVTLGPNLLPICLPDNDTFYDLGLMGYVSGFGVMEEKIAHDLRFVRLPVANPQACENWLRGKNRMDVFSQNMFCAGHPSLKQDACQGDSGGVFAVRDPNTDRWVATGIVSWGIGCSRGYGFYTKVLNYVDWIKKEMEEED
chain 2: EPTMYGEILSPNYPQAYPSEVEKSWDIEVPEGYGIHLYFTHLDIELSENCAYDSVQIISGDTEEGRLCGQRSSNNPHSPIVEEFQVPYNKLQVIFKSDFSNEERFTGFAAYYVATDINECTDFVDVPCSHFCNNFIGGYFCSCPPEYFLHDDMKNCGVNCSGDVFTALIGEIASPNYPKPYPENSRCEYQIRLEKGFQVVVTLRREDFDVEAADSAGNCLDSLVFVAGDRQFGPYCGHGFPGPLNIETKSNALDIIFQTDLTGQKKGWKLRYHGDPMPCPKEDTPNSVWEPAKAKYVFRDVVQITCLDGFEVVEGRVGATSFYSTCQSNGKWSNSKLKCQPVDCGIPESIENGKVEDPESTLFGSVIRYTCEEPYYYMENGGGGEYHCAGNGSWVNEVLGPELPKCVPVCGVPREPFEEKQRIIGGSDADIKNFPWQVFFDNPWAGGALINEYWVLTAAHVVEGNREPTMYVGSTSVQTSRLAKSKMLTPEHVFIHPGWKLLEVPEGRTNFDNDIALVRLKDPVKMGPTVSPICLPGTSSDYNLMDGDLGLISGWGRTEKRDRAVRLKAARLPVAPLRKCKEVKVEKPTADAEAYVFTPNMICAGGEKGMDSCKGDSGGAFAVQDPNDKTKFYAAGLVSWGPQCGTYGLYTRVKNYVDWIMKTMQENSTPRED
